Consider two molecules from article PMC10864275, “Binding kinetics drive G protein subtype selectivity at the β1-adrenergic receptor” (Nature Communications, 2024).

Assay [1] concerns the target avi-β1AR-E (turkey β1-adrenergic receptor, β1AR-E construct with N-terminal biotinylated avi-tag) (turkey), P07700. Kind of assay: BLI; biotinylated avi-β1AR in LMNG on streptavidin biosensors, mini-G in solution; 500 μM isoprenaline; 20 mM TrisHCl pH 8.0, 150 mM NaCl, 15 mM MgCl2, 0.02% LMNG, 0.1% BSA; 25 °C; single point measurements, monophasic 1:1 local fit, n = 3.

For assay [2], the target named is avi-β1AR-E (turkey β1-adrenergic receptor, minimally thermostabilised construct with E130 restored, N-terminal biotinylated avi-tag) (turkey), P07700. Nature of the assay: BLI; biotinylated avi-tagged receptor in LMNG immobilised on streptavidin biosensors; 500 μM isoprenaline; mini-G in solution at a single concentration (0.125-4 μM); 20 mM TrisHCl pH 8.0, 150 mM NaCl, 15 mM MgCl2, 0.02% LMNG, 0.1% BSA; 25 °C; 1:1 monophasic local partial fit; one of n = 3 tips.

The target in assay [3] is avi-β1AR-W (turkey β1-adrenergic receptor β1AR-MetΔ5, thermostabilised with E130W, N-terminal biotinylated avi-tag) (turkey), P07700. The description is as above.

“And” between values parts separate entries of the source, which are not always exact repeats. Identical values can stand only once.

Sequence of avi-β1AR-E (turkey β1-adrenergic receptor, β1AR-E construct with N-terminal biotinylated avi-tag) (turkey), P07700 (P07700 other isoform, or with tags, fused parts or gaps): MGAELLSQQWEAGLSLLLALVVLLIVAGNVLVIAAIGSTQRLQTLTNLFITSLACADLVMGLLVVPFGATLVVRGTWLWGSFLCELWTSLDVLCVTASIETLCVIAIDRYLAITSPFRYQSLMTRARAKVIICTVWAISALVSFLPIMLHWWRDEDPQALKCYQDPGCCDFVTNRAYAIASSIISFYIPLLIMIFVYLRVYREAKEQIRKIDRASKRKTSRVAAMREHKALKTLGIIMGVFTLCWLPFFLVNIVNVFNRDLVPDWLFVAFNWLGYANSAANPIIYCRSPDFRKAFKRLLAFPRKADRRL
Sequence of avi-β1AR-E (turkey β1-adrenergic receptor, minimally thermostabilised construct with E130 restored, N-terminal biotinylated avi-tag) (turkey), P07700 (P07700 other isoform, or with tags, fused parts or gaps): as above
Sequence of avi-β1AR-W (turkey β1-adrenergic receptor β1AR-MetΔ5, thermostabilised with E130W, N-terminal biotinylated avi-tag) (turkey), P07700 (P07700 other isoform, or with tags, fused parts or gaps E130W): as the sequence (P07700 other isoform, or with tags, fused parts or gaps) above, with E100W counted along it

B1: mini-Gs 393 with C96A (domain or fragment)
chain: GIEKQLQKDKQVYRATHRLLLLGADNSGKSTIVKQMRIYHGGSGGSGGTSGIFETKFQVDKVNFHMFDVGGQRDERRKWIQAFNDVTAIIFVVDSSDYNRLQEALNDFKSIWNNRWLRTISVILFLNKQDLLAEKVLAGKSKIEDYFPEFARYTTPEDATPEPGEDPRVTRAKYFIRDEFLRISTASGDGRHYCYPHFTCAVDTENARRIFNDCRDIIQRMHLRQYELL
modifications: not checked
The molecule B1 gave a Kd in assay [1] of 47 nM.

B2: mini-Go1 R12 (domain or fragment)
chain: IEKNLKEDGISAAKDVKLLLLGADNSGKSTIVKQMKIIHTTGIVETHFTFKNLHFRLFDVGGQRSERKKWIHCFEDVTAIIFCVDLSDYNRMHESLMLFDSICNNKFFIDTSIILFLNKKDLFGEKIKKSPLTICFPEYTGPNTYEDAAAYIQAQFESKNRSPNKEIYCHMTCATDTNNAQVIFDAVTDIIIANNLRGCGLY
modifications: not checked
On to B2, for which, in assay [2], the Kd is 1430 nM and 1120 nM and 1460 nM; the off-rate (koff) is 0.0042 s⁻¹ and 0.00358 s⁻¹ and 0.00401 s⁻¹; the kon is 2950 M⁻¹ s⁻¹ and 3200 M⁻¹ s⁻¹ and 2740 M⁻¹ s⁻¹. Moreover, in assay [3], the Kd was 8710 nM and 8110 nM and 5420 nM; the off-rate (koff) was 0.0102 s⁻¹ and 0.00894 s⁻¹ and 0.00914 s⁻¹; the on-rate (kon) is 1170 M⁻¹ s⁻¹ and 1100 M⁻¹ s⁻¹ and 1690 M⁻¹ s⁻¹. In addition, in assay [1], the equilibrium dissociation constant (Kd) turned out to be 1340 nM and the fold reduction of kon against mini-Gs stood at 50 fold.
